Data reported in publication PMC2773007.

Molecular target: Dvl2 PRR2 mutant (Δ370–376), FLAG-tagged (human) (UniProt O14641)
Sequence of UniProt O14641 (O14641 other isoform, or with tags, fused parts or gaps mutant): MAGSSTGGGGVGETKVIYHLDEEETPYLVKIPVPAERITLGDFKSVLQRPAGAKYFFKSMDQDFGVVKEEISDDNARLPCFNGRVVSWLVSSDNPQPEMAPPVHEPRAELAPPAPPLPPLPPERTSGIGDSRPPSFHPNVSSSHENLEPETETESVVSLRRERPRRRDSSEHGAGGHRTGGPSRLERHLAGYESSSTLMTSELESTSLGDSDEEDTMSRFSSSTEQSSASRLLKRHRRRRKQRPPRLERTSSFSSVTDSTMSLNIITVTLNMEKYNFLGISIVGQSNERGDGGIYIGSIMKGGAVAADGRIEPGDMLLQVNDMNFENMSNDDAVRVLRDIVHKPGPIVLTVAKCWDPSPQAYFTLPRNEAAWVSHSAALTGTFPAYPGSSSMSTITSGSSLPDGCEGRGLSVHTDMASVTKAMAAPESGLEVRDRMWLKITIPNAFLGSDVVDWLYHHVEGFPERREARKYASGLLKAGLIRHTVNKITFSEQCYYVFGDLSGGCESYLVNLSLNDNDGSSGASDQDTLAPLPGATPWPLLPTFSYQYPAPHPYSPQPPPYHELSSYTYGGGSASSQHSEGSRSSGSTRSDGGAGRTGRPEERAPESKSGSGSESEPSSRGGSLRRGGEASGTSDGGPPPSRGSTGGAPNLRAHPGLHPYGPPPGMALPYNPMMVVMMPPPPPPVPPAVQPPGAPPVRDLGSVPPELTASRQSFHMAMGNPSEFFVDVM

sTF LEF/TCF luciferase reporter in HEK293 cells, co-expression of the Dvl2 mutant and Grb2: 60 % decrease
Substance: HA-tagged Grb2 (human growth factor receptor-bound-2) (from UniProt P62993 1-217) (natural protein)
